The results in this text go back to US20230340607A1 (UNIVERSITY OF PITTSBURGH OF THE COMMONWEALTH SYSTEM OF …, published 2023).

One experiment deals with T1, integrin β1 (UniProt P05556 21-798).
T1 construct: also called ITGB1; integrin B1
The experiment can be described thus: co-immunoprecipitation with anti-RAD51AP1 antibody from T47D cell lysate, immunoblot. The procedure: (§1) To identify the key molecules important for RAD51AP1-DYRK4 to modulate MEK signaling, the RAD51AP1 interactants were investigated with the Entrez Gene database. […] Immuno-precipitation was performed using the RAD51AP1 antibody in the T47D cells overexpressing E9-E2 or wtRAD51AP1.
(§2) Immunoprecipitation. The cells were seeded in 10 cm² dishes with 200 ng/ml for one week. After one week doxycycline treatment, doxycycline-induced T47D OE cells were freshly harvested and lysed in NETN-400 buffer ([…] Tris-HCL, pH 8.0, […] NaCl, 1 mM EDTA, and 0.5% Nonidet P-40) for 25 minutes on ice and then centrifugated for 25 minutes at 14,500 rpm. The supernatants were diluted with the same buffer without NaCl (NETN-0) to obtain a final concentration of NaCl at 150 mM and incubated with indicated antibodies for 2 hours at 4° C., and then added protein-G beads (Santa Cruz) overnight. The beads were washed three times with cell lysis buffer and the precipitated proteins were subjected to western blot analysis.
(A western blot detects proteins with antibodies after separation by electrophoresis.)

The next experiment deals with c-Src (UniProt P12931 2-536). Described as above. The procedure:
as §1, §2

T1 sequence (P05556 21-798 limits assumed): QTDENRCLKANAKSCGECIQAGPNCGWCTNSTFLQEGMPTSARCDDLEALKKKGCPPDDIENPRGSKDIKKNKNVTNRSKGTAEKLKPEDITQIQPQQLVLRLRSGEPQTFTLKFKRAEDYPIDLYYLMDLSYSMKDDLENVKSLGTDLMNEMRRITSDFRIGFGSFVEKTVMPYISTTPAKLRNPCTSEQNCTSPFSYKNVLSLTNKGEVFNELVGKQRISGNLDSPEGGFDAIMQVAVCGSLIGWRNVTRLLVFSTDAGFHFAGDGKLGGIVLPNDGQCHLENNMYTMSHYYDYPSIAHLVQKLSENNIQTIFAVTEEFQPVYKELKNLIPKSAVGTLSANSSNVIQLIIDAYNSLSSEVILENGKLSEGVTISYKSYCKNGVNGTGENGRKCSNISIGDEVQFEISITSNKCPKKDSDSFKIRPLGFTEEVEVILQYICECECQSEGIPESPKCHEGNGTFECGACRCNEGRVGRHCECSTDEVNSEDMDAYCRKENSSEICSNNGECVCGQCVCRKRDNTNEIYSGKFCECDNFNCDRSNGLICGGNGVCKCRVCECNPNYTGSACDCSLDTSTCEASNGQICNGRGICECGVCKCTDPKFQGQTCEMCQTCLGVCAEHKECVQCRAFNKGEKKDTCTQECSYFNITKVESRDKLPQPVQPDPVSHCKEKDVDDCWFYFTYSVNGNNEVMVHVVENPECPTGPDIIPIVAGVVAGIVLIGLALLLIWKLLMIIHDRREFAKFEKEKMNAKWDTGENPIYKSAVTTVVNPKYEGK

B1: RAD51AP1-DYRK4 fusion protein (E9-E2 variant) (other)
chain: MVRPVRHKKPVNYSQFDHSDSDDDFVSATVPLNKKSRTAPKELKQDKPKPNLNNLRKEEIPVQEKTPKKRMALDDKLYQRDLEVALALSVKELPTVTTNVQNSQDKSIEKHGSSKIETMNKSPHISNCSVASDYLDLDKITVEDDVGGVQGKRKAASKAAAQQRKILLEGSDGDSANDTEPDFAPGEDSEDDSDFCESEDNDEDFSMRKSKVKEIKKKEVKVKSPVEKKEKKSKSKCNALVTSVDSAPAAVKSESQSLPKKVSLSSDTTRKPLEIRSPSAESKKPKWVPPGLKWMLKSQGNVI
notes: Expressed from a doxycycline-inducible lentiviral vector in T47D cells (co-IP, western blot), or endogenous in MDAMB361 cells (western blot); also called E9-E2 protein; E9E2 fusion
On to B1, for which the binding result in the experiment with integrin β1 and in the experiment with c-Src was “no binding” throughout.
